For two substances, Vmax for uptake in J774E cells results are on record in patent US20040009165A1.

The target in the experiment is macrophage mannose receptor on murine macrophage cell line J774E (murine) (UniProt Q61830). The experiment is described as follows: cell-based or functional assay.

As for “Cerezyme (recombinantly produced glucocerebrosidase) (from UniProt P04062 40-536) (enzyme)”, the Vmax for uptake in J774E cells came out at 0.518.

Take “pGC54: GCB-GGGG linker-Saposin C fusion protein (enzyme)”: the Vmax for uptake in J774E cells stood at 0.871.
